The values that follow come from patent publication US6596261B1, “Method of administering a medicinal aerosol formulation” (Aeropharm Technology Incorporated, priority 2000, dated 2003).

A word on the Vd: it is a proportionality between amount in the body and measured concentration, not a real space. High values mean extensive tissue distribution, low ones confinement near the circulation.

Ends that are not written are not given here.

This series can be described thus: Pharmacokinetics of amylin in rabbits after intravenous versus intrapulmonary administration. The series is classed as in vivo, New Zealand rabbits. Particulars: for Vd: average of six; for Ke: elimination rate constant; for K12: rate constant central to peripheral compartment; for K21: rate constant peripheral to central compartment. The source says:
The table listed below discloses the average measured results
Referring to FIG. 2, the experimental results obtained were compared to the results calculated using formulae (I) through (VI). The calculated data is totally consistent with the experimental data of this EXAMPLE.

Where [1] appears, read: Intrapulmonary Administration, dose: 7.5 μg/kg.
Where [2] appears, read: Intravenous Administration, dose: 5.0 μg/kg.

As to “amylin (KCNTATCATQRLANFLVHSSNNFGAILSSTNVGSNTY; not fully specified (C-terminus, bridges); cysteine pairing not given here; UniProt P10997 34-70, looked up) [β-cell hypoglycemic medicament; natural, synthetic, semi-synthetic or recombinant amylin or amylin analogs]”, under setting [1], the “AUC (Area under the blood concentration time course curve)” value amounted to 16.9670 ng·min/mL; the “F (Bioavalability), Percent of administered drug absorbed from the lung dose” value worked out at 24.9%; the “T1/2 (Half life of the drug in the body)” value is 26.3819 min; the Vd stood at 63.0911 L. Under setting [1], the Ke was 0.02627 min⁻¹, the K12 is 0.03211 min⁻¹ and the K21 was 0.01774 min⁻¹. Further, under setting [2], the “AUC (Area under the blood concentration time course curve)” value was found to be 45.4016 ng·min/mL, the “T1/2 (Half life of the drug in the body)” value was found to be 17.1771 min, the volume of distribution (Vd) came out at 9.5246 L and the Ke was 0.0403 min⁻¹. Besides, under setting [2], the K12 was 0.0180 min⁻¹ and the K21 stood at 0.0075 min⁻¹.
